{"source": "paper PMC6083090", "about": "“CNBP Homologues Gis2 and Znf9 Interact with a Putative G-Quadruplex-Forming 3′ Untranslated Region, Altering Polysome Association and Stress Tolerance in Cryptococcus neoformans”", "key": {"rZnf9 [1]": {"target": "T1, rZnf9 (Cryptococcus neoformans (H99), UniProt J9VQH8 1-184)", "T1 sequence": "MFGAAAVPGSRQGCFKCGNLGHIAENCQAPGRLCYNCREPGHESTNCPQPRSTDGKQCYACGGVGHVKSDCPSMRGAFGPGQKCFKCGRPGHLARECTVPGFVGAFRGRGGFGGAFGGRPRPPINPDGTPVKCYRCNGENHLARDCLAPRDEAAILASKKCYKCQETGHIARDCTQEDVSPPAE", "assay": "UV-cross-linked EMSA; 5 mM Mg2+; EMSA: 15 mM HEPES pH 7.4, 40 mM KCl, 5 mM MgCl2, 5% glycerol, 0.5 pmol probe in 20 µl, room temperature 20 min, then UV cross-link on ice 10 min", "details": "protein: recombinant; tags: His (pET14b, Ni-NTA); label: 5'-TYE705; putative intramolecular G4"}, "rGis2 [2]": {"target": "T2, rGis2 (Cryptococcus neoformans (H99), UniProt J9VQ17 1-201)", "T2 sequence": "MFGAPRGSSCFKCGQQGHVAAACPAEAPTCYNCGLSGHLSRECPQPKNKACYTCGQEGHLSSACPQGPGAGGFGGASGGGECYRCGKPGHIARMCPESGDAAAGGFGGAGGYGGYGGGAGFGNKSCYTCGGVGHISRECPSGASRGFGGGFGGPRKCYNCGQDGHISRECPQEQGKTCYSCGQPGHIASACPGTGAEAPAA", "assay": "UV-cross-linked EMSA; 5 mM Mg2+; EMSA: 15 mM HEPES pH 7.4, 40 mM KCl, 5 mM MgCl2, 5% glycerol, 0.5 pmol probe in 20 µl, room temperature 20 min, then UV cross-link on ice 10 min", "details": "protein: recombinant; tags: His (pET14b, Ni-NTA); label: 5'-TYE705; putative intramolecular G4"}, "rZnf9 [3]": {"target": "T1, rZnf9", "assay": "competition; 25x and 50x competitor, UV-cross-linked EMSA; EMSA: 15 mM HEPES pH 7.4, 40 mM KCl, 5 mM MgCl2, 5% glycerol, 0.5 pmol probe in 20 µl, room temperature 20 min, then UV cross-link on ice 10 min", "details": "protein: recombinant; tags: His (pET14b, Ni-NTA); label: none; no G4"}, "rGis2 [4]": {"target": "T2, rGis2", "assay": "competition; 25x and 50x competitor, UV-cross-linked EMSA; EMSA: 15 mM HEPES pH 7.4, 40 mM KCl, 5 mM MgCl2, 5% glycerol, 0.5 pmol probe in 20 µl, room temperature 20 min, then UV cross-link on ice 10 min", "details": "protein: recombinant; tags: His (pET14b, Ni-NTA); label: none; no G4"}}}
{"binder": "UGCAGUGGAGUUGGAGUGGGGAUGGGAUGUUGGGCAGUGGGCCCGUGGAU (structured_RNA)", "note": "[TYE705-RPL2-3'UTR]", "values": [{"measurement": "binding result", "setting": "rZnf9 [1]", "value": "binds"}, {"measurement": "binding result", "setting": "rGis2 [2]", "value": "binds"}]}
{"binder": "UGCAGUGGAGUUGGAGUGAAACCAAACCGUUGGGCAGUGGGCCCGUGGAU (ssRNA)", "note": "[mt competitor (cons mt)]", "values": [{"measurement": "binding result", "setting": "rZnf9 [3]", "value": "no binding"}, {"measurement": "binding result", "setting": "rGis2 [4]", "value": "no binding"}]}
